B1: Peroxiredoxin-1 (Mus musculus), P35700 (parent)
chain: MSSGNAKIGYPAPNFKATAVMPDGQFKDISLSEYKGKYVVFFFYPLDFTFVCPTEIIAFSDRADEFKKLNCQVIGASVDSHFCHLAWINTPKKQGGLGPMNIPLISDPKRTIAQDYGVLKADEGISFRGLFIIDDKGILRQITINDLPVGRSVDEIIRLVQAFQFTDKHGEVCPAGWKPGSDTIKPDVNKSKEYFSKQK
partner: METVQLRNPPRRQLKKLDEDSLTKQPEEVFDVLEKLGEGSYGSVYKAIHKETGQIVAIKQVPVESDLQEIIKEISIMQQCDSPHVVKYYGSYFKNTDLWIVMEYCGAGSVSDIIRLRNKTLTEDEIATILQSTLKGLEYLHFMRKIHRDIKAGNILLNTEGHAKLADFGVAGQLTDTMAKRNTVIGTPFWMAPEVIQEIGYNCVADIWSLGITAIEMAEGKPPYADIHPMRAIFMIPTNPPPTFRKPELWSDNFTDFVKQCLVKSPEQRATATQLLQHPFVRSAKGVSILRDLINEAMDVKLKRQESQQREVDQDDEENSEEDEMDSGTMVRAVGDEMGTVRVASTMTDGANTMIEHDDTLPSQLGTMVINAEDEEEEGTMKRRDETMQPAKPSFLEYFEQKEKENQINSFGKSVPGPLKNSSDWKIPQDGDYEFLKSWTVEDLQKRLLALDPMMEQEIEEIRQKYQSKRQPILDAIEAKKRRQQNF

Variants of: B1
Settings: with stk4_human STK4, Q13043

Row | Variant | effect of a mutation on the interaction
1 | C83S | decreasing interaction
2 | C52S | disrupting interaction
3 | C173S | increasing interaction

— IntAct's records for PubMed 21516123
